The labels stand for the following.
B1: Kinesin-like protein KIF16B, residues 1213 to 1273; numbered along this chain, Q96L93 (parent)
chain: ETWTVFRRYSRFREMHKTLKLKYAELAALEFPPKKLFGNKDERVIAERRSHLEKYLRDFFS

± gives the uncertainty stated by the source.

The record followed here is the Human Domainome abundance scans (Beltran et al. 2025).

Variants of B1 are the subject of this data set. The data set can be described thus: abundance fitness (aPCA) (normalised: wild type 0, dead -1); higher = more abundant; growth selection in yeast, the domain comes from the species named. Conditions: Homo sapiens.
Turning to ETWTVFRRLSRFREMHKTLKLKYAELAALEFPPKKLFGNKDERVIAERRSHLEKYLRDFFS, the abundance fitness stood at 0.063 ± 0.098.
For ETWTVFRRGSRFREMHKTLKLKYAELAALEFPPKKLFGNKDERVIAERRSHLEKYLRDFFS the value was 0.245 ± 0.042; for ETWTVFRRMSRFREMHKTLKLKYAELAALEFPPKKLFGNKDERVIAERRSHLEKYLRDFFS, 0.163 ± 0.048.
With ETWTVFRRVSRFREMHKTLKLKYAELAALEFPPKKLFGNKDERVIAERRSHLEKYLRDFFS, the abundance fitness stood at 0.019 ± 0.059.
For the variant ETWTVFRRWSRFREMHKTLKLKYAELAALEFPPKKLFGNKDERVIAERRSHLEKYLRDFFS, the abundance fitness was determined as 0.076 ± 0.06.
In the case of ETWTVARRYSRFREMHKTLKLKYAELAALEFPPKKLFGNKDERVIAERRSHLEKYLRDFFS, the abundance fitness was -0.241 ± 0.088.
As for ETWTVERRYSRFREMHKTLKLKYAELAALEFPPKKLFGNKDERVIAERRSHLEKYLRDFFS, the abundance fitness was -0.161 ± 0.12.
With ETWTVRRRYSRFREMHKTLKLKYAELAALEFPPKKLFGNKDERVIAERRSHLEKYLRDFFS, the abundance fitness was -0.601 ± 0.072.
For ETWTVNRRYSRFREMHKTLKLKYAELAALEFPPKKLFGNKDERVIAERRSHLEKYLRDFFS the value was -0.451 ± 0.12; for ETWTVPRRYSRFREMHKTLKLKYAELAALEFPPKKLFGNKDERVIAERRSHLEKYLRDFFS, -0.227 ± 0.061.
For the variant ETWTVIRRYSRFREMHKTLKLKYAELAALEFPPKKLFGNKDERVIAERRSHLEKYLRDFFS, the abundance fitness was -0.044 ± 0.095.
To ETWTVCRRYSRFREMHKTLKLKYAELAALEFPPKKLFGNKDERVIAERRSHLEKYLRDFFS belongs -0.842 ± 0.23; to ETWTVSRRYSRFREMHKTLKLKYAELAALEFPPKKLFGNKDERVIAERRSHLEKYLRDFFS, -0.215 ± 0.064.
Consider ETWTVHRRYSRFREMHKTLKLKYAELAALEFPPKKLFGNKDERVIAERRSHLEKYLRDFFS, for which the abundance fitness is -0.541 ± 0.29.
Consider ETWTVYRRYSRFREMHKTLKLKYAELAALEFPPKKLFGNKDERVIAERRSHLEKYLRDFFS, for which the abundance fitness was -0.69 ± 0.14.
Consider ETWTVKRRYSRFREMHKTLKLKYAELAALEFPPKKLFGNKDERVIAERRSHLEKYLRDFFS, for which the abundance fitness is -0.442 ± 0.26.
Turning to ETWTVGRRYSRFREMHKTLKLKYAELAALEFPPKKLFGNKDERVIAERRSHLEKYLRDFFS, the abundance fitness is -0.168 ± 0.061.
As for ETWTVMRRYSRFREMHKTLKLKYAELAALEFPPKKLFGNKDERVIAERRSHLEKYLRDFFS, the abundance fitness was -0.443 ± 0.13.
To ETWTVVRRYSRFREMHKTLKLKYAELAALEFPPKKLFGNKDERVIAERRSHLEKYLRDFFS belongs -0.107 ± 0.084; to ETWTVQRRYSRFREMHKTLKLKYAELAALEFPPKKLFGNKDERVIAERRSHLEKYLRDFFS, -0.402 ± 0.18; to ETWTVLRRYSRFREMHKTLKLKYAELAALEFPPKKLFGNKDERVIAERRSHLEKYLRDFFS, -0.242 ± 0.073.
Regarding ETWTVTRRYSRFREMHKTLKLKYAELAALEFPPKKLFGNKDERVIAERRSHLEKYLRDFFS, the abundance fitness was -0.352 ± 0.096.
As to ETWTVDRRYSRFREMHKTLKLKYAELAALEFPPKKLFGNKDERVIAERRSHLEKYLRDFFS, the abundance fitness was -0.474 ± 0.33.
For ETWTVFRRYFRFREMHKTLKLKYAELAALEFPPKKLFGNKDERVIAERRSHLEKYLRDFFS, the abundance fitness came out at 0.099 ± 0.062.
ETWTVFRRYDRFREMHKTLKLKYAELAALEFPPKKLFGNKDERVIAERRSHLEKYLRDFFS: the abundance fitness was -0.224 ± 0.22.
For the variant ETWTVFRRYHRFREMHKTLKLKYAELAALEFPPKKLFGNKDERVIAERRSHLEKYLRDFFS, the abundance fitness is -1.1 ± 0.48.
As for ETWTVFRRYPRFREMHKTLKLKYAELAALEFPPKKLFGNKDERVIAERRSHLEKYLRDFFS, the abundance fitness turned out to be 0.135 ± 0.074.
With ETWTVFRRYCRFREMHKTLKLKYAELAALEFPPKKLFGNKDERVIAERRSHLEKYLRDFFS, the abundance fitness came out at 0.208 ± 0.13.
Regarding ETWTVFRRYQRFREMHKTLKLKYAELAALEFPPKKLFGNKDERVIAERRSHLEKYLRDFFS, the abundance fitness was -0.419 ± 0.13.
With ETWTVFRRYLRFREMHKTLKLKYAELAALEFPPKKLFGNKDERVIAERRSHLEKYLRDFFS, the abundance fitness is -0.007 ± 0.074.
ETWTVFRRYIRFREMHKTLKLKYAELAALEFPPKKLFGNKDERVIAERRSHLEKYLRDFFS: the abundance fitness was -0.229 ± 0.11.
For ETWTVFRRYKRFREMHKTLKLKYAELAALEFPPKKLFGNKDERVIAERRSHLEKYLRDFFS, the abundance fitness is -0.317 ± 0.19.
Take ETWTVFRRYARFREMHKTLKLKYAELAALEFPPKKLFGNKDERVIAERRSHLEKYLRDFFS: the abundance fitness was -0.095 ± 0.065.
ETWTVFRRYERFREMHKTLKLKYAELAALEFPPKKLFGNKDERVIAERRSHLEKYLRDFFS: the abundance fitness was -0.758 ± 0.14.
In the case of ETWTPFRRYSRFREMHKTLKLKYAELAALEFPPKKLFGNKDERVIAERRSHLEKYLRDFFS, the abundance fitness is -0.442 ± 0.22.
In the case of ETWTLFRRYSRFREMHKTLKLKYAELAALEFPPKKLFGNKDERVIAERRSHLEKYLRDFFS, the abundance fitness turned out to be 0.035 ± 0.1.
In the case of ETWTTFRRYSRFREMHKTLKLKYAELAALEFPPKKLFGNKDERVIAERRSHLEKYLRDFFS, the abundance fitness came to 0.094 ± 0.078.
For ETWTKFRRYSRFREMHKTLKLKYAELAALEFPPKKLFGNKDERVIAERRSHLEKYLRDFFS the value was 0.318 ± 0.25.
To ETWTQFRRYSRFREMHKTLKLKYAELAALEFPPKKLFGNKDERVIAERRSHLEKYLRDFFS belongs -0.093 ± 0.05; to ETWTRFRRYSRFREMHKTLKLKYAELAALEFPPKKLFGNKDERVIAERRSHLEKYLRDFFS, -0.041 ± 0.08.
Take ETWTIFRRYSRFREMHKTLKLKYAELAALEFPPKKLFGNKDERVIAERRSHLEKYLRDFFS: the abundance fitness was -0.044 ± 0.08.
For ETWTWFRRYSRFREMHKTLKLKYAELAALEFPPKKLFGNKDERVIAERRSHLEKYLRDFFS the value was 0.086 ± 0.13; for ETWTMFRRYSRFREMHKTLKLKYAELAALEFPPKKLFGNKDERVIAERRSHLEKYLRDFFS, 0.125 ± 0.055.
On to ETWTSFRRYSRFREMHKTLKLKYAELAALEFPPKKLFGNKDERVIAERRSHLEKYLRDFFS, for which the abundance fitness is -0.023 ± 0.086.
